# Read-outs that look alike come from different tables or passages of the source. Numbered stars: 1 amine (or outer) side, 2 acyl side, 3 side chain; on linkers, the order of the positions; unused ones are H or OH. Peptide text beside a SMILES is read from it. * marks the point of attachment. Doxorubicin(3'-N) = COc1cccc2c1C(=O)c1c(O)c3c(c(O)c1C2=O)C[C@@](O)(C(=O)CO)C[C@@H]3O[C@H]1C[C@H](N*)[C@H](O)[C@H](C)O1; Suc = O=C(CCC(=O)[*:2])[*:1]
# Legend:
# [1] = target: legumain (Homo sapiens, UniProt Q99538); assay: cleavage of LEG compounds by legumain; format: biochemical
# [2] = test system: CT26 murine colon carcinoma; assay: CT26 syngeneic murine colon carcinoma model; format: in vivo, Balb/c mice
# From the text: Animal models. […] Balb/C mice aged 4 to 6 weeks from the breeding colony were inoculated with 500,000 syngeneic CT26 tumor cells per site subcutaneously in the back. […] Treatment was repeated at 2 day intervals. The human 293 tumor models were generated in WEHI nude mice (The Scripps Research Institute breeding colony). […] Tumor growth and physical signs were monitored daily including any gross evidence of tumor necrosis, local tumor ulceration as well as evidence of toxicity including mobility, response to stimulus, eating, and weight of each animal. These procedures have been reviewed and approved by the Institutional Animal Care and Use Committee at The Scripps Research Institute. The work was conducted in The Scripps Research Institute facilities which are accredited by the Association for the Assessment and Accreditation of Laboratory Animal Care. The Scripps Research Institute maintains an assurance with the Public Health Service, is registered with the United States Department of Agriculture and is in compliance with all regulations relating to animal care and welfare.
# Animal models. […] Treatment was three times per week for two weeks.
# [3] = mouse, in vivo, iv
# [4] = test system: legumain+ 293 cells; assay: WST-1 cytotoxicity assay, legumain+ 293 cells
# Method: (§1) Cytotoxic assays. The WST-1 cell proliferation reagent (Roche Molecular Chemicals, Germany) was used to determine cell proliferation by quantification of cellular metabolic activity. Control 293 cells and legumain+ 293 cells were cultivated in microtiter plates (5×10^3 cells per well in 100 μl) and were incubated with serial concentrations of legubicin or doxorubicin for 48 h. Subsequently, 10 μl of WST-1 solution (1 mg/ml WST-1, 25 μM -methyldibenzopyrazine methyl sulfate) was added per well, and mixtures were incubated for an additional 4 h. The tetrazolium salt WST-1 (4-[3-(4-lodophenyl)-2-(4-nitrophenyl)-2H-5-tetrazolio-1,3-benzene disfonate) was cleaved by the mitochondrial succinate-tetrazolium-reductase system to formazan in cells which directly correlates to the number of metabolically viable cells in the culture. The amount of formazan salt was quantified in three replicates by absorbance at 450 nm using a micro-plate reader (Molecular Devices, Palo Alto, Calif.).
# (§2) Cytotoxicity assays. The WST-1 cell proliferation reagent (Roche Molecular Chemicals, Germany) was used to determine cell proliferation by quantization of cellular metabolic activity. […] The amount of formazan salt was quantified in three replicates by absorbance at 450 nm using a micro-plate reader (Molecular Devices, Palo Alto, Calif.).
# [5] = test system: control 293 cells; assay: WST-1 cytotoxicity assay, control 293 cells; details: Homo sapiens, HEK293, 48 h
# Method: as §1, §2
# [6] = gross toxicity (weight loss, death) of treated mice; format: in vivo
# Method: Tumor growth and signs of physical discomfort were monitored daily. Such signs included any gross evidence of tumor necrosis, local tumor ulceration as well as evidence of toxicity including changes in the animal's mobility, response to stimulus, piloerection, eating, and weight. These procedures have been reviewed and approved by the Institutional Animal Care and Use Committee at The Scripps Research Institute. All the experiments were conducted in The Scripps Research Institute facilities which are accredited by the Association for the Assessment and Accreditation of Laboratory Animal Care. The Scripps Research Institute maintains an assurance with the Public Health Service, and is registered with the United States Department of Agriculture and is in compliance with all regulations relating to animal care and welfare.
# [7] = test system: control 293 cells; assay: Dox and LEG-3 uptake assay, cells not expressing legumain
# Method: Dox and LEG-3 uptake assay. Legumain^+ 293 cells or control 293 cells (2.5×10^5 cells/well) were seeded in six-well plates. The culture plates were then incubated for 24 h at 37° C. and 5% CO2, and the medium in each well was replaced with 2 ml of serum-free, antibiotic-free medium containing various concentrations of Dox or LEG-type prodrug compounds. The cells were incubated 1.5 h then washed three times with 2 ml of cold PBS. At this point, cell nuclear positivity for Dox could be analyzed by fluorescent microscopy. For quantitative assays the cells were then lysed by adding 0.5 ml of water and gently rotated on an orbital shaker for 5 min at room temperature. The lysed cells were added to 1.5 ml acidified ethanol, and incubated at 4° C. in the dark for 3 h. Total Dox and LEG content was measured fluorometrically using a Perkin-Elmer LS-50-B spectrofluorometer (excitation: 470 nm; emission: 590 nm). Fluorescence intensity was translated to drug concentration by use of a standard curve prepared from Dox and LEG solutions in cell lysates that were not previously exposed to the drug. Results are expressed as the mean±SD of at least three replicates for each experiment.
# [8] = in vivo; parameters: species or system Balb/c male mice; details: male, Balb/c, mouse
# [9] = test system: cardiac myocytes; details: for apoptosis of cardiac myocytes (TUNEL): treated mice
# [10] = test system: HTP cells; assay: WST-1 cytotoxicity assay, HTP cells; format: cell-based; details: 50% cell death, 48 h
# Method: Cytotoxicity assays. The WST-1 cell proliferation reagent (Roche Molecular Chemicals, Germany) was used to determine cell proliferation by quantization of cellular metabolic activity. […] Subsequently, 10 μl of WST-1 solution (1 mg/ml WST-1, 25 μM -methyldibenzopyrazine methyl sulfate) was added per well, and mixtures were incubated for an additional 4 h. The tetrazolium salt WST-1 (4-[3-(4-Iodophenyl)-2-(4-nitrophenyl)-2H-5-tetrazolio-1,3-benzene disfonate) was cleaved by the mitochondrial succinate-tetrazolium-reductase system to formazan in cells in direct correlation with the number of metabolically viable cells in the culture. The amount of formazan salt was quantified in three replicates by absorbance at 450 nm using a micro-plate reader (Molecular Devices, Palo Alto, Calif.). All results were derived from replicate experiments with similar results.
# [11] = test system: legumain expressing cells; assay: Dox and LEG-3 uptake assay, legumain expressing cells; format: cell-based, human; details: legumain expressing cells in culture
# From the text: Dox and LEG-3 uptake assay.
# [12] = tissue distribution in mice bearing CT26 colon carcinomas; format: in vivo; details: twelve hours post injection
# Method: Tissue distribution. LEG compounds or Dox was injected i.p. into mice, 12 h later the animals were perfused and the Dox autofluorescence was measured following homogenization in 50% ethanol and then diluted with an equal volume of 50% ethanol containing 0.6 M HCl. Fluorescence measurements were obtained with excitation at 470 nm and emission at 590 nm, concentrations were derived by conversion from a Dox standard curve. Tissues from saline injected mice provided controls. Blood samples were to 0.75 ml with PBS, centrifuged, the pellets washed with PBS and Dox extracted with ethanol, 0.3 M HCl.
# Legumain is selectively functional in the tumor microenvironment.
# [13] = test system: peripheral blood leukocytes; assay: marrow toxicity, peripheral blood leukocyte counts; format: in vivo, Balb C mice; details: six times in twelve days
# Method: Determination of marrow toxicity. […] On day 7, retro-orbital sinus blood samples were collected into 10 mM EDTA, and counted by hemocytometer after lysis of red blood cells with an acidified methyl violet solution.
# [14] = plasma pharmacokinetics in mice bearing CT26 tumors; details: single intravenous bolus, MTD of Dox and molar equivalent of LEG-3, CT26 tumor mice
# legumain, sequence (Q99538 18-323, species assumed): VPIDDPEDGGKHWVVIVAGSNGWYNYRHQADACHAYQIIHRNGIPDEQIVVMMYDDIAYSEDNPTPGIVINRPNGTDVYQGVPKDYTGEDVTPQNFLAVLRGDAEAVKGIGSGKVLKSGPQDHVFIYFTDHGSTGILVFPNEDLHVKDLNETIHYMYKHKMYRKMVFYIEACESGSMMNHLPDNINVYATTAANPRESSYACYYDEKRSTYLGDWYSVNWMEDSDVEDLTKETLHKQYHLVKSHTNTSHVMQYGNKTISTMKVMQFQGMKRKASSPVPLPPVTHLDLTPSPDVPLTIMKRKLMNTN
compound,measurement,setting,value
"COc1cccc2c1C(=O)c1c(O)c3c(c(O)c1C2=O)C[C@@](O)(C(=O)CO)C[C@@H]3O[C@H]1C[C@H](NC(=O)[C@H](CC(C)C)NC(=O)[C@H](CC(N)=O)NC(=O)[C@@H](NC(=O)CCNC(=O)CCC(=O)O)[C@@H](C)O)[C@H](O)[C@H](C)O1 [LEG-2, N-Succinyl-β-alanyl-L-threoinyl-L-Asparaginyl-L-Leucyl-Doxorubicin]",cleavage by legumain,[1],are cleaved by legumain
same,in vivo tumoricidal activity,[2]; mice bearing CT26 tumors,demonstrable in vivo tumoricidal efficacy
"COc1cccc2c1C(=O)c1c(O)c3c(c(O)c1C2=O)C[C@@](O)(C(=O)CO)C[C@@H]3O[C@H]1C[C@H](N)[C@H](O)[C@H](C)O1 [Dox, doxorubicin, reference compound]",decline of plasma concentration,[3],very rapidly declined
same,cytotoxic effect on legumain+ 293 cells,[4],only slightly more resistant
same,EC50,[5],1200 nM
same,anti-tumor efficacy,[2]; doses approaching its maximum tolerable dose (MTD),failed to produce similar anti-tumor efficacy
same,toxicity,[2]; i.p. 5 mg/kg three times at 2 day intervals,fatal
same,Average weight loss (%),[6]; Dose 1.72 μmol/kg,24%
same,Death (%),[6]; Dose 1.72 μmol/kg,35%
same,Average weight loss (%),[6]; Dose 5.4 μmol/kg,28%
same,Death (%),[6]; Dose 5.4 μmol/kg,75%
same,cell uptake,[7],rapidly entered cells
same,LD50,[8]; ip,17.2 µmol/kg
same,MTD,[8]; ip,9.8 µmol/kg
same,LD50 at 5 days,"[8]; ip, i.p. 5×",3.4 µmol/kg
same,MTD at 5 days,"[8]; ip, i.p. 5×",2.8 µmol/kg
same,LD50,[8]; iv,25.8 µmol/kg
same,MTD,[8]; iv,18.2 µmol/kg
same,LD50 at 5 days,"[8]; iv, i.v. 5×",5.1 µmol/kg
same,MTD at 5 days,"[8]; iv, i.v. 5×",3.2 µmol/kg
same,apoptosis of cardiac myocytes (TUNEL),[9],marked apoptosis
same,EC50,[10],1500 nM
COc1cccc2c1C(=O)c1c(O)c3c(c(O)c1C2=O)C[C@@](O)(C(=O)CO)C[C@@H]3O[C@H]1C[C@H](NC(=O)[C@H](CC(C)C)NC(=O)[C@H](CC(N)=O)NC(=O)[C@H](C)NC(=O)[C@H](C)NC(=O)CCC(=O)O)[C@H](O)[C@H](C)O1 [LEG-3] (Suc-AANL-{Doxorubicin(3'-N)}),cell uptake,[11],the end product Dox was found in cells
same,"concentrations in cardiac, liver, kidney, spleen and lung tissues compared to Dox",[12],reduced
same,content in tumor tissues relative to Dox,[12]; CT26 tumors,more than 10 fold
same,reduction of total WBC counts,[13]; 4.94 μmol/kg,no reductions
same,reduction of total WBC counts,[13]; 10-fold higher dose than 4.94 μmol/kg,only a slight reduction
same,decline of plasma concentration,[14],much slower
same,Average weight loss (%),[6]; Dose 1.97 μmol/kg,3%
same,Death (%),[6]; Dose 1.97 μmol/kg,0%
same,Average weight loss (%),[6]; Dose 4.9 μmol/kg,5%
same,Death (%),[6]; Dose 4.9 μmol/kg,0%
same,Average weight loss (%),[6]; Dose 49.4 μmol/kg,7%
same,Death (%),[6]; Dose 49.4 μmol/kg,0%
same,Average weight loss (%),[6]; Dose 98.7 μmol/kg,8%
same,Death (%),[6]; Dose 98.7 μmol/kg,10%
same,Average weight loss (%),[6]; Dose 197.4 μmol/kg,16%
same,Death (%),[6]; Dose 197.4 μmol/kg,50%
same,toxicity based on weight loss and mortality,[6]; xenograft bearing mice (FIG. 13E),negligible
same,cell uptake,[7]; cell cultures not expressing legumain,remained extracellular
same,LD50,[8]; ip,> 197 µmol/kg
same,MTD,[8]; ip,> 197 µmol/kg
same,LD50 at 5 days,"[8]; ip, i.p. 5×",> 197 µmol/kg
same,MTD at 5 days,"[8]; ip, i.p. 5×",98.7 µmol/kg
same,LD50,[8]; iv,> 197 µmol/kg
same,MTD,[8]; iv,> 197 µmol/kg
same,LD50 at 5 days,"[8]; iv, i.v. 5×",197 µmol/kg
same,MTD at 5 days,"[8]; iv, i.v. 5×",74 µmol/kg
same,histological evidence of cardiac toxicity,[9]; 49.4 μmol/kg,no histological evidence of cardiac toxicity
same,apoptosis of cardiac myocytes (TUNEL),[9],not observed

# Source: US20110300147A9, “Inhibiting tumor cell invasion, metastasis and angiogenesis” (The Scripps Research institute, priority 2005, published 2011)
